To fix the notation:
B1: Cytoplasmic polyadenylation element-binding protein 2, residues 513 to 575; numbered along this chain, Q7Z5Q1 (parent)
chain: KRVEVKPYVLDDQMCDECQGARCGGKFAPFFCANVTCLQYYCEFCWANIHSRAGREFHKPLVK

± gives the uncertainty stated by the source.

In this data set the parent is B1. Put plainly: abundance fitness (aPCA) (normalised: wild type 0, dead -1); higher = more abundant; growth selection in yeast, the domain comes from the species named. As to conditions: Homo sapiens.
KRVEVKPYVLDDQMCDECQGARCGGKFAPFFCANETCLQYYCEFCWANIHSRAGREFHKPLVK [V35E]: the abundance fitness worked out at 0.063 ± 0.062.

On to KRVEVKPYVLDDQMCDECQGARCGGKFAPFFCANQTCLQYYCEFCWANIHSRAGREFHKPLVK [V35Q], for which the abundance fitness came to 0.021 ± 0.053.

Regarding KRVEVKPYVLDDQMCDECQGARCGGKFAPFFCANPTCLQYYCEFCWANIHSRAGREFHKPLVK [V35P], the abundance fitness stood at 0.116 ± 0.053.

On to KRVEVKPYVLDDQMCDECQGARCGGKFAPFFCANWTCLQYYCEFCWANIHSRAGREFHKPLVK [V35W], for which the abundance fitness was -0.29 ± 0.053.

With KRVEVKPYVLDDQMCDECQGARCGGKFAPFFCANMTCLQYYCEFCWANIHSRAGREFHKPLVK [V35M], the abundance fitness was -0.334 ± 0.09.

Take KRVEVKPYVLDDQMCDECQGARCGGKFAPFFCANKTCLQYYCEFCWANIHSRAGREFHKPLVK [V35K]: the abundance fitness is 0.002 ± 0.07.

As to KRVEVKPYVLDDQMCDECQGARCGGKFAPFFCANTTCLQYYCEFCWANIHSRAGREFHKPLVK [V35T], the abundance fitness was 0.033 ± 0.053.

For the variant KRVEVKPYVLDDQMCDECQGARCGGKFAPFFCANYTCLQYYCEFCWANIHSRAGREFHKPLVK [V35Y], the abundance fitness was -0.305 ± 0.14.

Consider KRVEVKPYVLDDQMCDECQGARCGGKFAPFFCANFTCLQYYCEFCWANIHSRAGREFHKPLVK [V35F], for which the abundance fitness is -0.115 ± 0.06.

In the case of KRVEVKPYVLDDQMCDECQGARCGGKFAPFFCWNVTCLQYYCEFCWANIHSRAGREFHKPLVK [A33W], the abundance fitness is -0.28 ± 0.042.

Take KRVEVKPYVLDDQMCDECQGARCGGKFAPFFCQNVTCLQYYCEFCWANIHSRAGREFHKPLVK [A33Q]: the abundance fitness turned out to be 0.099 ± 0.053.

KRVEVKPYVLDDQMCDECQGARCGGKFAPFFCVNVTCLQYYCEFCWANIHSRAGREFHKPLVK [A33V]: the abundance fitness was -0.124 ± 0.044.

Turning to KRVEVKPYVLDDQMCDECQGARCGGKFAPFFCSNVTCLQYYCEFCWANIHSRAGREFHKPLVK [A33S], the abundance fitness amounted to 0.061 ± 0.036.

Regarding KRVEVKPYVLDDQMCDECQGARCGGKFAPFFCRNVTCLQYYCEFCWANIHSRAGREFHKPLVK [A33R], the abundance fitness is -0.124 ± 0.041.

Turning to KRVEVKPYVLDDQMCDECQGARCGGKFAPFFCTNVTCLQYYCEFCWANIHSRAGREFHKPLVK [A33T], the abundance fitness is 0.021 ± 0.062.

KRVEVKPYVLDDQMCDECQGARCGGKFAPFFCPNVTCLQYYCEFCWANIHSRAGREFHKPLVK [A33P]: the abundance fitness is -0.072 ± 0.05.

Consider KRVEVKPYVLDDQMCDECQGARCGGKFAPFFCYNVTCLQYYCEFCWANIHSRAGREFHKPLVK [A33Y], for which the abundance fitness worked out at 0.009 ± 0.089.

Consider KRVEVKPYVLDDQMCDECQGARCGGKFAPFFCANVWCLQYYCEFCWANIHSRAGREFHKPLVK [T36W], for which the abundance fitness was -0.328 ± 0.055.

Consider KRVEVKPYVLDDQMCDECQGARCGGKFAPFFCANVCCLQYYCEFCWANIHSRAGREFHKPLVK [T36C], for which the abundance fitness is -0.201 ± 0.12.

With KRVEVKPYVLDDQMCDECQGARCGGKFAPFFCANVACLQYYCEFCWANIHSRAGREFHKPLVK [T36A], the abundance fitness stood at 0.007 ± 0.045.

Consider KRVEVKPYVLDDQMCDECQGARCGGKFAPFFCANVRCLQYYCEFCWANIHSRAGREFHKPLVK [T36R], for which the abundance fitness is -0.151 ± 0.042.

KRVEVKPYVLDDQMCDECQGARCGGKFAPFFCANVMCLQYYCEFCWANIHSRAGREFHKPLVK [T36M]: the abundance fitness was -0.095 ± 0.062.

As to KRVEVKPYVLDDQMCDECQGARCGGKFAPFFCANVPCLQYYCEFCWANIHSRAGREFHKPLVK [T36P], the abundance fitness is -0.054 ± 0.048.

Consider KRVEVKPYVLDDQMCDECQGARCGGKFAPFFCANVYCLQYYCEFCWANIHSRAGREFHKPLVK [T36Y], for which the abundance fitness is -0.153 ± 0.069.

Turning to KRVEVKPYVLDDQMCDECQGARCGGKFAPFFCANVLCLQYYCEFCWANIHSRAGREFHKPLVK [T36L], the abundance fitness was -0.121 ± 0.035.

For KRVEVKPYVLDDQMCDECQGARCGGKFAPFFCANVSCLQYYCEFCWANIHSRAGREFHKPLVK [T36S], the abundance fitness is -0.011 ± 0.041.

Consider KRVEVKPYVLDDQMCDECQGARCGGKFAPFFCANVVCLQYYCEFCWANIHSRAGREFHKPLVK [T36V], for which the abundance fitness is -0.106 ± 0.053.

KRVEVKPYVLDDQMCDECQGARCGGKFAPFFCANVECLQYYCEFCWANIHSRAGREFHKPLVK [T36E]: the abundance fitness came out at 0.108 ± 0.037.

As for KRVEVKPYVLDDQMCDECQGARCGGKFAPFFCANVNCLQYYCEFCWANIHSRAGREFHKPLVK [T36N], the abundance fitness is -0.024 ± 0.057.

Take KRVEVKPYVLDDQMCDECQGARCGGKFAPFFCANVICLQYYCEFCWANIHSRAGREFHKPLVK [T36I]: the abundance fitness is -0.09 ± 0.062.

As to KRVEVKPYVLDDQMCDECQGARCGGKFAPFFCANVHCLQYYCEFCWANIHSRAGREFHKPLVK [T36H], the abundance fitness was -0.061 ± 0.05.

Turning to KRVEVKPYVLDDQMCDECQGARCGGKFAPFFCANVQCLQYYCEFCWANIHSRAGREFHKPLVK [T36Q], the abundance fitness was -0.058 ± 0.052.

For the variant KRVEVKPYVLDDQMCDECQGARCGGKFAPFFCANVFCLQYYCEFCWANIHSRAGREFHKPLVK [T36F], the abundance fitness was -0.312 ± 0.11.

On to KRVEVKPYVLDDQMCDECQGARCGGKFAPFFCANVKCLQYYCEFCWANIHSRAGREFHKPLVK [T36K], for which the abundance fitness was -0.027 ± 0.045.

For KRVEVKPYVLDDQMCDECQGARCGGKFAPFFCANVDCLQYYCEFCWANIHSRAGREFHKPLVK [T36D], the abundance fitness was determined as 0.108 ± 0.077.

Regarding KRVEVKPYVLDDQMCDECQGARCGGKFAPFFCANVGCLQYYCEFCWANIHSRAGREFHKPLVK [T36G], the abundance fitness was determined as 0.073 ± 0.036.

Turning to KRVEVKPYVLDDQMCDECQGARCGGKFAPFFCANVTCEQYYCEFCWANIHSRAGREFHKPLVK [L38E], the abundance fitness was 0.077 ± 0.053.

Turning to KRVEVKPYVLDDQMCDECQGARCGGKFAPFFCANVTCAQYYCEFCWANIHSRAGREFHKPLVK [L38A], the abundance fitness amounted to 0.044 ± 0.043.

For KRVEVKPYVLDDQMCDECQGARCGGKFAPFFCANVTCGQYYCEFCWANIHSRAGREFHKPLVK [L38G], the abundance fitness was -0.006 ± 0.039.

As for KRVEVKPYVLDDQMCDECQGARCGGKFAPFFCANVTCHQYYCEFCWANIHSRAGREFHKPLVK [L38H], the abundance fitness was found to be 0.029 ± 0.098.

Take KRVEVKPYVLDDQMCDECQGARCGGKFAPFFCANVTCFQYYCEFCWANIHSRAGREFHKPLVK [L38F]: the abundance fitness was -0.076 ± 0.072.

With KRVEVKPYVLDDQMCDECQGARCGGKFAPFFCANVTCCQYYCEFCWANIHSRAGREFHKPLVK [L38C], the abundance fitness was 0.064 ± 0.058.

In the case of KRVEVKPYVLDDQMCDECQGARCGGKFAPFFCANVTCDQYYCEFCWANIHSRAGREFHKPLVK [L38D], the abundance fitness is -0.054 ± 0.052.

(Values after the Human Domainome abundance scans (Beltran et al. 2025).)
